According to PMC3282739:

Key:
[1] = target: Cthe_2751 (Clostridium thermocellum); experiment: SEC; Hi Load 10/300 Superdex G75 gel filtration column equilibrated with 20 mM Tris-HCl, 100 mM NaCl, pH 8.0
[2] = target: Cthe_2751 (Clostridium thermocellum); experiment: AUC; sedimentation velocity in an analytical ultracentrifuge; curve generated with Sedfit

stoichiometry N [1]: 2 | stoichiometry N [2]: 2
Substance: Cthe_2751 (natural protein)
